Assay results published in article PMC4967898, “Peptides interfering with protein-protein interactions in the ethylene signaling pathway delay tomato fruit ripening” (Scientific Reports, 2016).

Target: T1, LeETR1 (Solanum lycopersicum, UniProt Q41342)
T1 construct: made in house; host or cells: E. coli
T1 sequence (Q41342 1-754): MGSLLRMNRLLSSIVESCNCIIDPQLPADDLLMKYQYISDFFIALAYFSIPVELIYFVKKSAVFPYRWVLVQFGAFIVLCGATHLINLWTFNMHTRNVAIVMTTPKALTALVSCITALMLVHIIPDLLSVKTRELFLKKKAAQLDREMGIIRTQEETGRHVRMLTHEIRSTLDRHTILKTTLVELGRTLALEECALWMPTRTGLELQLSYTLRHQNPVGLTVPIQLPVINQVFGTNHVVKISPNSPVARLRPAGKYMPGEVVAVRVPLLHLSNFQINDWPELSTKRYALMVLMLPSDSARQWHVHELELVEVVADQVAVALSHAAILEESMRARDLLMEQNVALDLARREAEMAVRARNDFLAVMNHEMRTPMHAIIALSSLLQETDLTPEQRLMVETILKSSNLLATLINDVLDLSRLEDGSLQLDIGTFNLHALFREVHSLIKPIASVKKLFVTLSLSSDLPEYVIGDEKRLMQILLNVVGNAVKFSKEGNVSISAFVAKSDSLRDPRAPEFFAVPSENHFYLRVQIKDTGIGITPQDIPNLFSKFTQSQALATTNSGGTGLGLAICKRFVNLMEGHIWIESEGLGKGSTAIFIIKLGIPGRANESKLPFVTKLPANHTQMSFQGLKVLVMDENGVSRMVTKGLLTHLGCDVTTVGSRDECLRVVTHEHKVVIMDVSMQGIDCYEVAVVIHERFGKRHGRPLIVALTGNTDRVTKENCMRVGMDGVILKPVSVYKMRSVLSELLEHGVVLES
Assay: MST interaction of labeled LeETR1 with LeEIN2^462–1316
Type: binding, tomato
Details: 0.4 μM LeETR1 labeled with Alexa Fluor 488 succinimidyl-ester, LeEIN2^462–1316 4.69 nM to 9.6 μM, 50 mM Tris-HCl pH 8.0, 300 mM NaCl, 0.015% (w/v) Fos-Choline-16, 80% MST power, independent triplicates, mean +/− standard deviation, read-out: Kd of LeEIN2-LeETR1 complex formation
Excerpt: Protein-protein interaction of LeEIN2 and LeETR1 was studied by microscale thermophoresis (MST). Thermophoresis, the motion of molecules in a temperature gradient, strongly depends on the hydration-shell, the charge and the size of the moving molecules. Typically, at least one of these features changes when a protein-protein interaction occurs. Thus, MST represents a highly sensitive and reliable tool to study protein-protein interactions. By recording the motion of a fluorescence-labeled molecule in the presence of increasing concentrations of a putative binding partner, the dissociation constant (Kd) reflecting the affinity of the interaction and the stability of the complex can be calculated. Recombinant LeETR1 was labeled with the fluorescent dye Alexa Fluor 488 and 0.4 μM of labeled LeETR1 was mixed with increasing concentrations of LeEIN2^462–1316 until saturation was reached (9.6 μM as final concentration). Binding of receptor and EIN2 was observed as a clear and strong response in the MST signal. […]
Figure 1 Interaction studies of tomato ETR1 and EIN2 via MST. […] Normalized fluorescence as MST signal is plotted against increasing LeEIN2^462–1316 (●) concentrations as described. […]

B1: LeEIN2^462–1316: recombinant C-terminal part of tomato EIN2, expressed in E. coli (protein)
chain: LKSASSRFDAQAFLQTHVPEPYSECNQLGASNAMFGLVEGSSQKQEGAFHVEKSLVSHPDLSTKDPDQLLPESLLDFEKVHQLATIDESKSETTFSAPAVVHPEVPVSAGASPSVKSVCNEVSGVVSVDTSVFNTETVDVAEKTLRIEGDMANDRDDGDSWEEPEEAIKGVSENAQSFISDGPGSYKSLSGKLEDTGSGTGSLSRLAGLGRAARRQLTEALNEFWGQLFDYHGVATAEAKSKKLDIILGLDSKMNPKPAPASLKVESSAYIPSGSARIPEPLINSHVYSPKQQFASNIVDSAYRVPKEPSSTSSMWSNHMKLVGAYVQSSNSNMLDSGERRYSSMRIPATSAGYDQQPATVHGYQITAYLNQLAKERGSDYLNGQLESPSPRSVSSLTSNYAEPLARVSGQKPQSGVSSRAPPGFGNVPVGRNNSMQPTNTTSVDHSSTETAESVAGSANSKKYYSLPDISGRYVPRQDSIVSDARAQWYNSMGFGQSGGRSTYEQAYMSGSLRAGGPQRYEHSPKVCRDAFSLQYSSNSGTGSLWSRQPFEQFGVAGKPDVGSGDHGTVLSSSAQESTSTVDLEAKLLQSFRSCIVKLLKLEGSEWLFRQDDGADEDLIGRIAAREKFLYEAETREISRLTNIGESHFSSNRKPGSAPKPEEMDYTKFLVMSVPHCGEGCVWKVDLIISFGVWCIHRILELSLMESRPELWGKYTYVLNRLQGIVDLAFSKPHSPTSHCFCLQIPAGRQQKASPPPISNGNLPPQAKQGRGKCTTAAMLLEMIKDVETAISCRKGRTGTAAGDVAFPKGKENLASVLKRYKRRLSNKPVGNQEVAGVAGPRKVTLSASSPPFVL
modifications: unlabeled in the MST titration of labeled LeETR1; Alexa Fluor 488 label in the reverse MST titration; Alexa Fluor 568 succinimidyl-ester label in the FRET assay; left off: His10, end not stated, state
notes: recombinant C-terminal part of tomato EIN2, expressed in E. coli
- Kd: 619 nM
